B1: Azoarcus group I ribozyme (parent)
chain: GUGCCUUGCGCCGGGAAACCACGCAAGGGAUGGUGUCAAAUUCGGCGAAACCUAAGCGCCCGCCCGGGCGUAUGGCAACGCCGAGCCAAGCUUCGGCGCCUGCGCCGAUGAAGGUGUAGAGACUAGACGGCACCCACCUAAGGCAAACGCUAUGGUGAAGGCAUAGUCCAGGGAGUGGCGAAAGUCACACAAACCGG

Variants of: B1
Test: reverse-splicing fitness (ratio to wild type); higher = more active; in vitro selection; Mg2+ level not given
How it was run: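 An in vitro group I ribozyme library with randomized positions was T7-transcribed and gel-purified. In triplicate, 10 pmol RNA in EPPS pH 7.5 was reacted with 50 pmoles of a 30-nt RNA substrate for 1 h at 37 °C across several added MgCl2 levels (1–48 mM), then stopped with EDTA. Products were reverse transcribed from a substrate-complementary primer, PCR-amplified and sequenced (HiSeq 4000). Fitness is a variant's read proportion after selection over that before, normalised to wild type.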

**Q.** Which reverse-splicing fitness does the source give for GUGCCUUGCGCCGGGAAACCACGCAAGGGAUGGUGUCAAAUUCGGCGAAACCUAAGCGCCCGCCCGGGCGUAUGGCAACGCUGAGCCAAGCUUCGGCGCCUGCGCCGAUGGAGGUGUAGUGACUAGACGGCACCCACCUAAGGCUAACGCUAUGGUGAAGGCAUAGUCAAGGGAGAGGCGAAAGUCACACAAACCGG [C82U A111G A120U A145U C169A U176A] here?
**A.** Its reverse-splicing fitness is 0.00208.

**Q.** For GUGCCUUGCGCCGGGAAACCACGCAAGGGAUGGUGUCAAAUUCGGCGAAACCUAAGCGCCCGCCCGGGCGUAUGGCAACGCUGAGCCAAGCUUCGGCGCCUGCGCCGAUGGAGGUGUAGUGACUAGACGGCACCCACCUAAGGCUAACGCUAUGGUGAAGGCAUAGUCAAGGGAGGGGCGAAAGUCACACAAACCGG [C82U A111G A120U A145U C169A U176G], which reverse-splicing fitness is on record?
**A.** The reverse-splicing fitness was 0.00175.

**Q.** For GUGCCUUGCGCCGGGAAACCACGCAAGGGAUGGUGUCAAAUUCGGCGAAACCUAAGCGCCCGCCCGGGCGUAUGGCAACGCUGAGCCAAGCUUCGGCGCCUGCGCCGAUGGAGGUGUAGUGACUAGACGGCACCCACCUAAGGCUAACGCUAUGGUGAAGGCAUAGUCAAGGGAGCGGCGAAAGUCACACAAACCGG [C82U A111G A120U A145U C169A U176C], which reverse-splicing fitness is on record?
**A.** The reverse-splicing fitness was 0.0022.

**Q.** Which reverse-splicing fitness does the source give for GUGCCUUGCGCCGGGAAACCACGCAAGGGAUGGUGUCAAAUUCGGCGAAACCUAAGCGCCCGCCCGGGCGUAUGGCAACGCUGAGCCAAGCUUCGGCGCCUGCGCCGAUGGAGGUGUAGUGACUAGACGGCACCCACCUAAGGCAAACGAUAUGGUGAAGGCAUAGUCUAGGGAGAGGCGAAAGUCACACAAACCGG [C82U A111G A120U C150A C169U U176A] here?
**A.** Its reverse-splicing fitness is 0.00577.

**Q.** Which reverse-splicing fitness does the source give for GUGCCUUGCGCCGGGAAACCACGCAAGGGAUGGUGUCAAAUUCGGCGAAACCUAAGCGCCCGCCCGGGCGUAUGGCAACGCUGAGCCAAGCUUCGGCGCCUGCGCCGAUGGAGGUGUAGUGACUAGACGGCACCCACCUAAGGCAAACGAUAUGGUGAAGGCAUAGUCUAGGGAGCGGCGAAAGUCACACAAACCGG [C82U A111G A120U C150A C169U U176C] here?
**A.** Its reverse-splicing fitness is 0.00372.

**Q.** Which reverse-splicing fitness does the source give for GUGCCUUGCGCCGGGAAACCACGCAAGGGAUGGUGUCAAAUUCGGCGAAACCUAAGCGCCCGCCCGGGCGUAUGGCAACGCUGAGCCAAGCUUCGGCGCCUGCGCCGAUGGAGGUGUAGUGACUAGACGGCACCCACCUAAGGCAAACGAUAUGGUGAAGGCAUAGUCUAGGGAGUGGCGAAAGUCACACAAACCGG [C82U A111G A120U C150A C169U] here?
**A.** Its reverse-splicing fitness is 0.00325.

**Q.** For GUGCCUUGCGCCGGGAAACCACGCAAGGGAUGGUGUCAAAUUCGGCGAAACCUAAGCGCCCGCCCGGGCGUAUGGCAACGCUGAGCCAAGCUUCGGCGCCUGCGCCGAUGGAGGUGUAGUGACUAGACGGCACCCACCUAAGGCAAACGAUAUGGUGAAGGCAUAGUCGAGGGAGUGGCGAAAGUCACACAAACCGG [C82U A111G A120U C150A C169G], which reverse-splicing fitness is on record?
**A.** Its reverse-splicing fitness is 0.00358.

**Q.** With GUGCCUUGCGCCGGGAAACCACGCAAGGGAUGGUGUCAAAUUCGGCGAAACCUAAGCGCCCGCCCGGGCGUAUGGCAACGCUGAGCCAAGCUUCGGCGCCUGCGCCGAUGGAGGUGUAGUGACUAGACGGCACCCACCUAAGGCAAACGAUAUGGUGAAGGCAUAGUCAAGGGAGUGGCGAAAGUCACACAAACCGG [C82U A111G A120U C150A C169A] as the variant, how does the reverse-splicing fitness read?
**A.** Its reverse-splicing fitness is 0.00324.

**Q.** With GUGCCUUGCGCCGGGAAACCACGCAAGGGAUGGUGUCAAAUUCGGCGAAACCUAAGCGCCCGCCCGGGCGUAUGGCAACGCUGAGCCAAGCUUCGGCGCCUGCGCCGAUGGAGGUGUAGUGACUAGACGGCACCCACCUAAGGCAAACGAUAUGGUGAAGGCAUAGUCGAGGGAGCGGCGAAAGUCACACAAACCGG [C82U A111G A120U C150A C169G U176C] as the variant, how does the reverse-splicing fitness read?
**A.** The reverse-splicing fitness was 0.00439.

**Q.** Which reverse-splicing fitness does the source give for GUGCCUUGCGCCGGGAAACCACGCAAGGGAUGGUGUCAAAUUCGGCGAAACCUAAGCGCCCGCCCGGGCGUAUGGCAACGCUGAGCCAAGCUUCGGCGCCUGCGCCGAUGGAGGUGUAGUGACUAGACGGCACCCACCUAAGGCAAACGAUAUGGUGAAGGCAUAGUCGAGGGAGGGGCGAAAGUCACACAAACCGG [C82U A111G A120U C150A C169G U176G] here?
**A.** The reverse-splicing fitness was 0.00213.

**Q.** With GUGCCUUGCGCCGGGAAACCACGCAAGGGAUGGUGUCAAAUUCGGCGAAACCUAAGCGCCCGCCCGGGCGUAUGGCAACGCUGAGCCAAGCUUCGGCGCCUGCGCCGAUGGAGGUGUAGUGACUAGACGGCACCCACCUAAGGCAAACGAUAUGGUGAAGGCAUAGUCGAGGGAGAGGCGAAAGUCACACAAACCGG [C82U A111G A120U C150A C169G U176A] as the variant, how does the reverse-splicing fitness read?
**A.** The reverse-splicing fitness was 0.0073.

**Q.** Which reverse-splicing fitness does the source give for GUGCCUUGCGCCGGGAAACCACGCAAGGGAUGGUGUCAAAUUCGGCGAAACCUAAGCGCCCGCCCGGGCGUAUGGCAACGCUGAGCCAAGCUUCGGCGCCUGCGCCGAUGGAGGUGUAGUGACUAGACGGCACCCACCUAAGGCAAACGAUAUGGUGAAGGCAUAGUCCAGGGAGUGGCGAAAGUCACACAAACCGG [C82U A111G A120U C150A] here?
**A.** Its reverse-splicing fitness is 0.00814.

**Q.** For GUGCCUUGCGCCGGGAAACCACGCAAGGGAUGGUGUCAAAUUCGGCGAAACCUAAGCGCCCGCCCGGGCGUAUGGCAACGCUGAGCCAAGCUUCGGCGCCUGCGCCGAUGGAGGUGUAGUGACUAGACGGCACCCACCUAAGGCAAACGAUAUGGUGAAGGCAUAGUCAAGGGAGAGGCGAAAGUCACACAAACCGG [C82U A111G A120U C150A C169A U176A], which reverse-splicing fitness is on record?
**A.** The reverse-splicing fitness was 0.00374.

**Q.** With GUGCCUUGCGCCGGGAAACCACGCAAGGGAUGGUGUCAAAUUCGGCGAAACCUAAGCGCCCGCCCGGGCGUAUGGCAACGCUGAGCCAAGCUUCGGCGCCUGCGCCGAUGGAGGUGUAGUGACUAGACGGCACCCACCUAAGGCAAACGAUAUGGUGAAGGCAUAGUCAAGGGAGGGGCGAAAGUCACACAAACCGG [C82U A111G A120U C150A C169A U176G] as the variant, how does the reverse-splicing fitness read?
**A.** Its reverse-splicing fitness is 0.00269.

**Q.** Which reverse-splicing fitness does the source give for GUGCCUUGCGCCGGGAAACCACGCAAGGGAUGGUGUCAAAUUCGGCGAAACCUAAGCGCCCGCCCGGGCGUAUGGCAACGCUGAGCCAAGCUUCGGCGCCUGCGCCGAUGGAGGUGUAGUGACUAGACGGCACCCACCUAAGGCAAACGAUAUGGUGAAGGCAUAGUCAAGGGAGCGGCGAAAGUCACACAAACCGG [C82U A111G A120U C150A C169A U176C] here?
**A.** The reverse-splicing fitness was 0.00313.

Source: the RNAGym collection of RNA variant scans (doi:10.1093/molbev/msab373)
